Article PMC10163261

Experiments:
3.L2 TCR = assay: bond lifetime vs force measurement (method not named for this panel); settings: solid fitted curve (TCR-pMHC-II model) read at force = 10 pN; TCR on CD4-CD8+ naive T cells; parent: est. 2.3; read off a plot
K5:I-E^k = K5:I-E^k (UniProt P04230); assay: BFP force-dependent bond lifetime measurement; settings: solid fitted curve (TCR-pMHC-II model) read at force = 10 pN; TCR on hybridomas; parent: est. 1.6; read off a plot
Sequence of UniProt P04230 (P04230 whole entry, looked up): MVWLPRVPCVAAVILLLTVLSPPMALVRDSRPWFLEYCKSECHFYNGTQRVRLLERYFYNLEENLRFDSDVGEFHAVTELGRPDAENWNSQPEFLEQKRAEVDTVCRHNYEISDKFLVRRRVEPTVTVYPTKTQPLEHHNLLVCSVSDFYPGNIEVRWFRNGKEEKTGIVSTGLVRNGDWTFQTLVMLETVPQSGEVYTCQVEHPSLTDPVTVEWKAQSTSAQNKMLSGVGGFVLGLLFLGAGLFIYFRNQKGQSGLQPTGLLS

Hb:I-Ek T72
other: bond lifetime (3.L2 TCR): 1.1 s

hybrid 2B4 TCR with its mouse Vαβ fused with the Cαβ of the human LC13 (WT) (from UniProt P01848) β:N222A; β:P223A
other: bond lifetime (K5:I-E^k): 2.2 s

hybrid 2B4 TCR with its mouse Vαβ fused with the Cαβ of the human LC13 (WT) (from UniProt P01848) β:H221A; β:N222A
other: bond lifetime (K5:I-E^k): 0.38 s

hybrid 2B4 TCR with its mouse Vαβ fused with the Cαβ of the human LC13 (WT) (from UniProt P01848) β:N225A; β:H226A
other: bond lifetime (K5:I-E^k): 0.15 s

hybrid 2B4 TCR with its mouse Vαβ fused with the Cαβ of the human LC13 (WT) (from UniProt P01848) β:G182A; β:K183A
other: bond lifetime (K5:I-E^k): 1.3 s
